Assay results from a protein production outcome set (Wang et al. 2014).

Assay: label from the status in PepcDB records
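Note: failed if final PepcDB status was selected cloned or expressed and not failed if soluble or beyond.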

Sequence	protein production
MSTIDFRPYGGFIFDMDGTLIDTMPAHLAAWQATADRFDFPFCQEWLHSLGGMPSFKIVAELNRHYGLSLDPQTVSKFKMETFAAMELQGDVIQCTGIVLEEYLGQKKIAVGTGSQRESAMRLLSHAGLIDRLDAVVTASDVENHKPCPDTFLLAADRLGIDAQNCLVFEDTELGKRAAHSAGMDCVMVEGNNLVFYPKR	not failed
MPAKQPTPKQEPATKAGRCLARSFMKTLIKDCSVSAIVAGSIATTISYAGPLVIIFHAAEAAGLSHQQLSSWVWAVSMGSALLGALLSLRYRVPVVIAWSIPGSALLVTALPQLGLEQAVGAYLVANLVLLLIGISGAFDRIIARLPGSIAAGMQAGILFSFGIEVFRALPVQPLLVLAMFVTYVLMRRVQPRYAVAAVLGVGMLVTVASGTLRSEALVLELASPQWITPQFSLSAVFSLALPMVLVALTGQFMPGMAVLRNAGYPTPASPLISASALIGVLLAPFGCHGLNLAAVTASLCTGHEAHENPQRRYVAAVAGSVLYLLLGIAGATLMSLFAAFPAVLIAALAGLALYGAISEALVRSLAEPAERDAGLFTFLVTASGVAFLGLSAAFWGLLFGLLAHALLRLRQPRAREVLRRTP	not failed
MDNQHNQNHIMGTLQWFIFLLANSIALPIVVGGLFHLTTEEIFYLMQRTFFVVGISSFLQGWLGHRLPIADGPAGSWVGVFTVLAYATAGQDQLHSTLQILELGMIISGIILIGLGVTGFIGRILFLFTPLVTGTFLLLLCLQLSGVFLKGMLGITATISQIDGFTAMIAFSIFLFVIILSNFGKGFVKSYAVLIGLISGWIIFLIAGKVTIPSQVTHFVQLPHIFAWGLPKWNTGMAVSSFVMVCILVSNTVAAIIAINQATIHKATIEQKQLKDGTWVGGISHIISSVFSTVGVVPLPATAGFIRLTKQKYIRSFLMACALLVVMSLFPSIIRYLASLPSAVASAVLMASFVQLIGIGFNNIKQVPMSERNVTILGVAVLFGSGVMFLPSGALQSLPSVMQYIFGNGLFVGTVVSILLEQIWRVGK	not failed
SQELTLSPGPAKLTPTLDPTHRMELILSTSPAELTLDPACQPKLPLDSTCQPEMTFNPGPTELTLDPEHQPEETPAPSLAELTLEPVHRRPELLDACADLINDQWPRSRTSRLHSLGQSSDAFPLCLMLLSPHPTLEAAPVVVGHARLSRVLNQPQSLLVETVVVARALRGRGFGRRLMEGLEVFARARGFRKLHLTTHDQVHFYTHLGYQLGEPVQGLVFTSRRLPATLLNAFPTAPSPRPPRKAPNLTAQAAPRGPKGPPLPPPPPLPECLTISPPVPSGPPSKSLLETQYQNVRGRPIFWMEKDI	not failed
MFIGGAIISFLFLFGYMWKEAHSNRIRHVTLSFPHFPDNGPPLTIFFISDIHRRSVSCRMLETVKGKADLVVIGGDLAEKGVPAARVRENVRRLQTVAPVYFVWGNNDDEVDYDLQSLLEEERVYVLKNKAEVWEHGGVPIALIGVGDVSRKEADIARALEHVPPESFRILACHNPAIIARLEDEQHISLVLSGHTHGGQIRLFSFGLYEKGGLKWHGNTALFTSNGYGTTGVPLRLGAPAETHLIKIVPGKLATEKLEHHHHHH	not failed
MLSVSWEYNFSFKKLNVPSFSVCRMLCGKLQNPLDHKKDEASHVKHASQGDVPFSGPLQVSKSNSFAWAKREKDDVCVRVHNRSLSRGYIPSLSGHSPAFNGKSDVESKINKDEKEDKTDSRGEESYEMVKRSMLKQWRQLERPDSFGASDEYHSQELSLGLYQRDEMAKKMGNNLVRP	failed
MAPAPAAEFWEARYRDTGRVWSGRPNELLVQEAGGLAPGTALDLGCGEGADAVWLASRGWRVTGVDISATALERAAGHADGAGVGDRVLWERHELGPSFPEGSFDLVSAHYLQSPVALDQQAVLRAAARAVAPGGTLLVVMHAGWPSWQTEPPFDAAFPTLDGVLAELALPEGEWSVETRRTARRPLEHHHHHH	failed
MYLLTFILIRINKYSDKAKKSAILVLLFLSLGAILKILEIADPSVKMDYIIQLVYSLTVFGAFVALSFYIKFLETPPSLTVHHSTKLPKNGGSEPKLVGAYLVSGSRSRIVDLINMIRELNAPILVFTRYPTFYQDLGENIKVIWITQASEDGIPPTKLHVIQDYAIKFAKENKYAVVIIDCVEYLLLYNEFASVFKFLASLKDYLIMMNSALVLAVDEKALDEKYYTLLLNEFEPL	failed
MNPLKAGDIAPKFSLPDQDGEQVNLTDFQGQRVLVYFYPKAMTPGCTVQACGLRDNMDELKKAGVDVLGISTDKPEKLSRFAEKELLNFTLLSDEDHQVCEQFGVWGEKSFMGKTYDGIHRISFLIDADGKIEHVFDDFKTSNHHDVVLNWLKEHA	not failed
MSAVFSGGLTQAGGMSSTETVDSSAVSSGTISDYVEAMGPSWIAGAIAAGPATIASLVTAGGAFGYSLLWVVVLSAGAGALAQYLAMRLGLLTERGIVAVVEDHLGETWAWLLVGDAVLAAGVAQLVIMKTVATVSATVTGIDARIWGVVWALILAAGLAGGGYRFLELAAKILVLLVVVAFVASLFVVPIDAGAAVAGLVPSVPSGSALVAAGILGGAVHITLITMHSYTMRARGWTREDYDLATVDVGASMLVAFGIYSLAIFLVTASVLTSGDLTTVGAAEALGPLVGDSARWLFLLGLWGAAVSTLGGNTIVPPFLLADKLGWGTTIEDNRYRGLLAAVALLSAPGAFIGGNVLGQLVLVLALGTVGTPFAIALVLYLLNSAAVPESNSLLANVGGLALIAVSGGLAANFVVEQLGGGVGPLSGFVLAFAIALGLAMAGLGGKFLREELLA	failed
MLEILMSLTAAICWAFNGIAYRKGVKDVSAFTANFHRTLFATVYFLPLALRDFPGVVIDLQTALVLVISAMLSFYIGDLSYFASLKRSPVSIALPASSTYPVYVVLLSTVIYGAELSLNALISAILVFVAVYIIYGSGEKGETSGLFYALLAAFSWALAILTLDFLTDRLPVSIVAFVRLLLCLILLSFTAKKDELSTEIRLFFRSVRGIFLLLGIMLFITAIKVSSSWNVVQPSSTSPVFAAIFGAIFLKERISFRLVAGIFVIILAILLLLLPPLQ	failed
MASYHVSHDSYQSPGPSPLYQPIIEAPPPPYPPTRTRYQDYYGGYGQPHPPPLRPYRSDHEYYGDGEYVGCFPFLRSCLTTLCCCWFVEQCCFRSRY	not failed
MGHGIEVLPDLFCYTIQIVNICFVGNPESNDFVLVDAGMPKCANEIISVAEDRFGTNSRPKAIILTHGHFDHVGGIIELIKYWDVPVYAHQMEIPFLTGQQSYPEPDSTVEGGMIAKMSPLFPNEPIDLGNSIKVLPTDGTVPHMPDFRWIHTPGHTPGHISLFREKDRTLIAGDAFVTVKQEYLYKVITQEQEISGPPRYLTTDWKAAKESVITLEKLKPLSAVTGHGIPMSGELLSTSLKTLAQEFDKIAVPDYGKYVDKKLEHHHHHH	failed
MPTDYIRNGVLYVTENYLCFESSKSGSSKRNKVIKLVDITDIQKYKVLSVLPGSGMGIAVSTPSTQKPLVFGAMVHRDEAFETILSQYIKITSAAASGGDS	failed
HGILIRSSAFLEELADLTSLVVDKTGTLTHGSLRLQALRLADAAEEASVLRLAASLGAASSHPVSRALAALAAHDAYHPLSDIRERQGFGVVARTAAGEAALGRPELFQQLGIDASEVPEHEGPIAGIALDGRFLGWLLLADSVRAEAAEALADLRELGLGRQLLLTGDRRAVADAVAKQVGIRQLVAQALPEDKLRQVGAEIGSGFRPMVVGDGINDSLALKAGVVGVAMGAGGADIALASADIVLIGSDLRRLGTCVRLSR	failed
MQPFRVTLVEDEPSHATLIQYHLNQLGAEVTVHPSGSAFFQHRSQLSTCDLLIVSDQLVDLSIFSLLDIVKEQTKQPSVLILTTGRHELIESSEHNLSYLQKPFAISELRAAIDYHKPSMGVTMNV	not failed
MKHPLQDMFTSAIEAVARDSGWAELSAVGSYLAKNDPSFDPRNWGHGRLSQMVKKLDFLTVQESRNGSKLHSEIRLRHDGLEHHHHHH	not failed
MRGCNKETGEFLGPSRSQQRRTALEVLVLSEKLAALTPAQLAKLPIPERLLPHITETKRITSHIARKRQLAFLAKQMRREDDTTLEAIREKLNASGIQAQREVATLHRTEQWRKRLLEEGDSALTELLNQYPQADCGKLRQLLRNSKTEQARNKAPQAFRELYQVLHGLIITQ	not failed
MSTTTRISTAERLGRALGRGWRAYARSERRASNWLVSKGVPLAAAAALLWAGKLAVLGLLLYVAFWLALLLVALVFVARGHDTVEWEPPEPEWRHGHAGFGLYTHDEYRIDSHDPSDET	failed
MPALCSTVQTLEKLAKDDVSSLALLGRSVMHDNALTSRILRVANSAIYHKGSTQISTVSRAAIVLGFDAVRNICITAQLLSSLLESKNLAPSVYQRLIKLMAKAFQAAMLTRMMLSDYDDDIQEEAFIACLLFHIGESAFWSIGGEFTETLDSQLTECETSADERSLIRETIGTSFSQLTQSIARHWGLGELLIQAVNYPDDPRPEIRSIFLADKLCDTLSVATPDKNDLEKYINQAANFTGLDETEFTLKMQRCTKATHKLAEAYGAKVLIDYLPDPQRIDKLEPYLPEAELPIFEANLNVQLVKLRELTAFAINKADFNQIMQTVLEGILEGVGVDRCGVLLLSPSRKQLQPRIMLGRDAEEMKRQFIIELGDRKGLFPMAMEHKESLWVDSPCAKKWQEQCRELKVQLPESGFLVAPLLVDNKVIGFYYADRGPSERCFAEVDFQAFIHFSQLANVCFTVSLK	failed
MKFYNREKEVAELKRVQELAFTQNSRMIVVTGRRRIGKTSLIKEALKGTPTVYLFIGRKAESILVTDFVKIVRETLSIFVPEGIPTFTNLMQYLFEVGKTRAFNIVIDEFQEFYNIRPDVFSDMQNLWDEYKQETKINLVISGSVYSLMQKIFTDHNEPLFGRADNILCLRAFKIGVLKQIMEDLASGYSNDDLLALYTLTGGIPKYVELFCDNQALTIDKMYDFVFSENSLFIDEGRNLLITEFGKNYGTYFSILSEIANGHYTQGEIESALGGTAIGGYLSKLENVYNLITRERPIFAKPGTKKNVRYVIGDNFLNFWFKYIEQNRSYIELQNFDDLRQLAKADYPTYSGRVLEKYFKQKLAETGGFKEIGSWWETKSSIGKQRINSYEIDIVALKSSGKKALIAEVKRVPENNYSHTVFMEKVEHLKQKEMSKYDIETQVLGLKDMLEHHHHHH	failed
MDFGSFLKAPEIKVKIVTYRDIFQDKAMIENRFGEEYRDRSAVIKMDSADLKQLNVKKGETVILKNSFGTVVVKAEESGYEPSHRGIAYMPKSPWSNMLVSDETGGTGIPKFKDISVTVTSAKGQKLTELGL	not failed
MASLSYPKTTMQIQLGANLKPYHTFGIEQLAAQLVVAESIDDLKALYCSAEWASLPKLIIGKGSNMLFTCHYTGMIVVNRLNGIEHQQDDDYHRLHVAGGEDWPSLVSWCVEQGIGGLENLALIPGCAGSAPIQNIGAYGVEFKDVCDYVEYLCLETGTVKRLTMEECQFGYRDSIFKHQLYQKAVVTAVGLKFAKAWQPIIQYGPLKDLSSDCAIHDVYQRVCATRMEKLPDPAVMGNAGSFFKNPVISQQAFARLQIEHPDVVAYPAEQGVKVAAGWLIDQAGLKGHQIGGAKVHPKQALVIVNTGDASAQDVLMLAADIQQRVFNCYGIELEHEVRFIGESEETNLKQWMSEQA	not failed
MKLKGKGIGKVVVEGEVIVSRKPLSFLGGVDPETGTITDPESDIKGESITGKILVFPKGKGSTVGSYILYALSKNGKGPKAIIVEEAEPIVTAGAIISGIPLITNVDISKLKTGMRVRINPQEGEVEILAEGNLLEHHHHHH	failed
